167 variants from the RNAGym collection of RNA variant scans (doi:10.7554/elife.90254) can be followed below.

The chains are these.
B1: LINE1-full (parent)
chain: UACGUAGGUGGUUUUCCCCUGAUAGUGCUAAGGGGGCCUGGAAGUUUGGACUGGGCAGAGCUCAACACAGCGUGGCAAAGUGGCUGUGGCUAGACUGCCUCUCUGGAUUCCUCGUCACUCAGCAGGGCAUCUCUGAGAGAAAUGCC

The variants in the data set derive from B1. Put plainly: self-cleavage, relative activity (ratio to wild type); higher = more cleavage; in vitro, sequencing; the parent is a self-cleaving ribozyme.
Regarding G88A C146U, the self-cleavage turned out to be 0.07.

With U85A A124U, the self-cleavage was found to be 0.08.

Consider U87C U102A, for which the self-cleavage was 0.12.

Regarding U87A A140U, the self-cleavage is 0.11.

Consider U81C U96C, for which the self-cleavage amounted to 0.2.

As to U81C U96A, the self-cleavage was found to be 0.1.

G82A U134G: the self-cleavage worked out at 1.08.

As for U85A U108G, the self-cleavage amounted to 0.12.

For the variant U85A U108C, the self-cleavage worked out at 0.12.

Consider U85A U108A, for which the self-cleavage was 0.17.

For U85C G105U, the self-cleavage came out at 0.14.

In the case of U87C G106A, the self-cleavage was found to be 0.21.

U87C G106U: the self-cleavage is 0.26.

Take C84U A142G: the self-cleavage was determined as 0.12.

Consider G82A G114C, for which the self-cleavage was found to be 3.

Consider U87G A94U, for which the self-cleavage was found to be 0.13.

In the case of G88A G114A, the self-cleavage came to 0.08.

Turning to U85A G93U, the self-cleavage was 0.08.

As to U85A G93A, the self-cleavage was determined as 0.05.

G86A U119A: the self-cleavage turned out to be 0.16.

U85A: the self-cleavage was found to be 0.09.

As to U85G, the self-cleavage stood at 0.13.

In the case of U85C, the self-cleavage came to 0.18.

For G83A U132A, the self-cleavage amounted to 1.09.

With U87A G88C, the self-cleavage stood at 0.08.

Regarding G82A A129G, the self-cleavage worked out at 2.28.

In the case of G82A A129U, the self-cleavage amounted to 1.21.

For U87C G122U, the self-cleavage is 0.3.

Turning to G83A G127A, the self-cleavage came out at 0.52.

As to U87A G114A, the self-cleavage came out at 0.05.

With G88A C110U, the self-cleavage turned out to be 0.04.

In the case of G82U U112C, the self-cleavage was 1.18.

Consider U85G U143C, for which the self-cleavage worked out at 0.13.

Regarding G82A A136G, the self-cleavage came out at 2.28.

Turning to U87A G127U, the self-cleavage was found to be 0.06.

For U87A G127A, the self-cleavage was 0.04.

G88A U143A: the self-cleavage worked out at 0.07.

Regarding G83A G144U, the self-cleavage came out at 1.55.

Regarding U85G U132C, the self-cleavage stood at 0.14.

Turning to U87C C145A, the self-cleavage stood at 0.27.

On to U81G U104C, for which the self-cleavage was 0.26.

With G83C U143G, the self-cleavage worked out at 1.08.

U87C U143C: the self-cleavage worked out at 0.21.

Take U87C U143A: the self-cleavage is 0.22.

As to G88A U104C, the self-cleavage is 0.15.

Regarding G82A U91C, the self-cleavage is 0.94.

Take U85C U143C: the self-cleavage was found to be 0.1.

With U85C U143A, the self-cleavage worked out at 0.19.

In the case of C84U A141G, the self-cleavage was 0.14.

Take U85G U134C: the self-cleavage is 0.16.

U81C G88A: the self-cleavage turned out to be 0.12.

For U81C G88U, the self-cleavage was determined as 0.05.

As for U87C U134C, the self-cleavage was 0.11.

In the case of U87C U134G, the self-cleavage came to 0.31.

On to U87A A121G, for which the self-cleavage is 0.1.

U87A A121U: the self-cleavage is 0.09.

On to U85A A107G, for which the self-cleavage was 0.08.

Turning to U87C G139A, the self-cleavage is 0.14.

On to U85A A141U, for which the self-cleavage was determined as 0.07.

Take U85A A141G: the self-cleavage amounted to 0.07.

In the case of U87A U96A, the self-cleavage worked out at 0.07.

As to U87A U96C, the self-cleavage was 0.12.

On to G83A C90U, for which the self-cleavage was found to be 0.06.

Consider U81C G127A, for which the self-cleavage was 2.07.

G82A C99A: the self-cleavage worked out at 0.78.

Turning to C84U G114U, the self-cleavage was 0.15.

For G83A U96C, the self-cleavage was 0.11.

Consider U87A U134A, for which the self-cleavage was 0.13.

As to U87G A138U, the self-cleavage worked out at 0.48.

Take U87G A138G: the self-cleavage was determined as 0.14.

Regarding U85G A94G, the self-cleavage came to 0.36.

Turning to U85C G122A, the self-cleavage is 0.14.

For the variant U87C U132C, the self-cleavage amounted to 0.19.

On to U81G U134G, for which the self-cleavage was 1.73.

With U87C U100C, the self-cleavage is 0.26.

In the case of U87C U100A, the self-cleavage was 0.1.

Turning to G82A A92G, the self-cleavage stood at 0.04.

On to U85C A117C, for which the self-cleavage amounted to 0.25.

As for G82A U104C, the self-cleavage turned out to be 0.83.

Consider U87A G97U, for which the self-cleavage is 0.08.

For U85A A142G, the self-cleavage turned out to be 0.08.

For U81C U104C, the self-cleavage turned out to be 1.48.

In the case of U85C U109C, the self-cleavage was 0.17.

Regarding U85C U109A, the self-cleavage came out at 0.12.

For the variant U85A U96A, the self-cleavage was found to be 0.12.

Regarding U85A U96C, the self-cleavage is 0.09.

Regarding U87C C103A, the self-cleavage was 0.1.

Regarding U85A A138U, the self-cleavage came to 0.06.

Consider U85A A138G, for which the self-cleavage stood at 0.07.

U85C C146U: the self-cleavage worked out at 0.27.

For the variant U85C C146A, the self-cleavage was found to be 0.48.

Regarding U87C C120A, the self-cleavage came out at 0.18.

Consider G86A U112A, for which the self-cleavage amounted to 0.08.

As to G86A A140G, the self-cleavage is 0.03.

For G86A, the self-cleavage came out at 0.08.

In the case of G86C, the self-cleavage was 0.06.

As for G86U, the self-cleavage turned out to be 0.1.

Consider U81G G122U, for which the self-cleavage was 1.42.

As to U81C G144A, the self-cleavage came to 0.42.

As to U85A U109C, the self-cleavage was found to be 0.07.

As to U85A U109A, the self-cleavage came to 0.06.

For C84U U100A, the self-cleavage came out at 0.07.

As to U85A C111A, the self-cleavage was found to be 0.06.

In the case of G82U A117U, the self-cleavage was found to be 1.3.

For U85C U87C, the self-cleavage came out at 0.04.

Take U85C U87A: the self-cleavage was 0.07.

Regarding G88A A138G, the self-cleavage was found to be 0.06.

Take C84A A136U: the self-cleavage turned out to be 0.19.

On to U87C C90U, for which the self-cleavage came out at 0.07.

Regarding G86A C118U, the self-cleavage stood at 0.09.

Take C84U U102C: the self-cleavage amounted to 0.16.

Turning to U85C G89A, the self-cleavage was 0.03.

Turning to U87A U91C, the self-cleavage was 0.07.

With C84A U112C, the self-cleavage is 0.16.

Take U85C C95U: the self-cleavage turned out to be 0.06.

Regarding U85A U115A, the self-cleavage amounted to 0.09.

U85A U115C: the self-cleavage worked out at 0.13.

Consider G88A A140U, for which the self-cleavage is 0.07.

U85A U102C: the self-cleavage is 0.13.

For U85C U96C, the self-cleavage came out at 0.2.

Consider U85C U96A, for which the self-cleavage was found to be 0.07.

On to G82A A142G, for which the self-cleavage came out at 2.1.

On to U81C G139A, for which the self-cleavage is 1.63.

As to U85C A142U, the self-cleavage is 0.21.

Take U85C A142G: the self-cleavage worked out at 0.17.

With G88A U100A, the self-cleavage was 0.07.

Turning to U87C A136G, the self-cleavage is 0.24.

For U87C A136C, the self-cleavage amounted to 0.16.

Regarding G86U U100C, the self-cleavage was found to be 0.16.

With U87A U100C, the self-cleavage is 0.09.

As for U85C U112C, the self-cleavage was 0.18.

Consider U85C U112A, for which the self-cleavage amounted to 0.19.

For C84G A140G, the self-cleavage stood at 0.12.

On to G88A A117G, for which the self-cleavage was found to be 0.07.

On to U87C U112A, for which the self-cleavage was 0.16.

With U87C U112C, the self-cleavage turned out to be 0.23.

Take C84A G93U: the self-cleavage amounted to 0.05.

For U85G A140G, the self-cleavage turned out to be 0.19.

Consider G88A U134A, for which the self-cleavage stood at 0.06.

Regarding G88A U134C, the self-cleavage was 0.08.

Take U87C C110A: the self-cleavage came to 0.06.

G86A A138G: the self-cleavage was 0.13.

Regarding G83A U100C, the self-cleavage was 1.21.

For the variant U85A C128G, the self-cleavage was found to be 0.06.

In the case of U87G A129G, the self-cleavage was 0.27.

As to U85A A117C, the self-cleavage came out at 0.07.

For the variant U85A A117U, the self-cleavage amounted to 0.09.

Regarding U85A A117G, the self-cleavage was 0.15.

Consider U85A U104A, for which the self-cleavage was 0.03.

Regarding U85A U104C, the self-cleavage worked out at 0.13.

Regarding U85A U104G, the self-cleavage came out at 0.02.

U87C G137A: the self-cleavage was found to be 0.5.

With U87C G137U, the self-cleavage came out at 0.27.

Consider U87A A124U, for which the self-cleavage was 0.08.

Turning to C84U A140G, the self-cleavage turned out to be 0.07.

Regarding G83C U132A, the self-cleavage came out at 0.73.

Regarding U85C U100C, the self-cleavage turned out to be 0.28.

Regarding U87G U112C, the self-cleavage was found to be 0.05.

As for C84U U109C, the self-cleavage turned out to be 0.1.

For U87C U109C, the self-cleavage came to 0.27.

Regarding U87C U109A, the self-cleavage is 0.15.

Regarding U87C G97A, the self-cleavage was determined as 0.12.

Consider C84A C131A, for which the self-cleavage came out at 0.18.

As for G88A A136G, the self-cleavage worked out at 0.07.

Take U85C U91C: the self-cleavage turned out to be 0.06.

Regarding U87G A140G, the self-cleavage was 0.19.

U81C A141G: the self-cleavage worked out at 1.07.
